The target of assay [1] is phospholipid scramblase 3 alpha (PLS3α) (human) (UniProt Q9NRY6). Briefly: cell-based or functional assay.
The target of assay [2] is phospholipid scramblase 3 (PLS3), human, isoform not stated (human) (UniProt Q9NRY6). Briefly: co-immunoprecipitation with PLS3 antibody, estimated against a PKC-δ blot (not shown).
Sequence of phospholipid scramblase 3 (PLS3), human, isoform not stated (human) (Q9NRY6 whole entry, canonical isoform): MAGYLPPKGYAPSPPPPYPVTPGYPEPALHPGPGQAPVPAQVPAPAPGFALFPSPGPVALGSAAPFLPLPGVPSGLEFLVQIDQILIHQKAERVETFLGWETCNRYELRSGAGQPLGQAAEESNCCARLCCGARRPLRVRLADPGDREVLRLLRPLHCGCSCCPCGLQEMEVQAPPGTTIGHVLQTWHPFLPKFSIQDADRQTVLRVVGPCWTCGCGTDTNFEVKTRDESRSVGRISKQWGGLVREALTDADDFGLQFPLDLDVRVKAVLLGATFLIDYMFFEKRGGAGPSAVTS

Sequence of phospholipid scramblase 3 alpha (PLS3α) (human) (Q9NRY6 other isoform, or with tags, fused parts or gaps limits assumed): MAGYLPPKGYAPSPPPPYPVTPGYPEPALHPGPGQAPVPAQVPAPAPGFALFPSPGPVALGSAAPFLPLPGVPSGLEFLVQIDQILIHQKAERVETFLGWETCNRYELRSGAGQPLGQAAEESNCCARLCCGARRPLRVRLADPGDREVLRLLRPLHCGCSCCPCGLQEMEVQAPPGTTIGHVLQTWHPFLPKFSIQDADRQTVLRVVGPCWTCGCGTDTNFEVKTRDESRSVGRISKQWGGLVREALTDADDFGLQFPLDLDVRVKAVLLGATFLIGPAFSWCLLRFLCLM

With “Bcl-B (untagged, from pcDNA-Bcl-B or pBcl-B-IRES-EGFP) (from UniProt Q9HD36 1-204)”, in assay [1], the percentage of cardiolipin at the outer membrane (shoulder of the NAO curve) is 50% and the proportion of sub-G1 cells, or the apoptotic population (propidium iodide) came out at 15.4%. As to “PKC-δ (cellular, HEK293 cells) (from UniProt Q05655 1-676) (enzyme)”, in assay [2], the percent of total cellular PKC-δ co-immunoprecipitated with PLS3 is 5 to 10%.

The values are drawn from patent US20060172958A1, “Phospholipid scramblase 3” (priority 2003, published 2006).
